Measurements taken from the Immune Epitope Database (IEDB).

Tests used:
HLA-A*01:01 [1] = test: IEDB peptide-MHC binding, purified MHC/competitive/fluorescence; filed as Kd, often an IC50 or EC50 that approximates it; ≥ and ≤ were set here for values at or beyond the usual limits of such assays; conditions: source organism: Mycobacterium tuberculosis str. Haarlem
HLA-B*48:01 = test: IEDB peptide-MHC binding, purified MHC/direct/fluorescence; filed as Kd, often an IC50 or EC50 that approximates it; ≥ and ≤ were set here for values at or beyond the usual limits of such assays
HLA-A*11:01 = test: as above
HLA-A*03:01 [2] = test: as above
HLA-B*57:01 = test: as above
HLA-B*38:01 = test: as above
HLA-B*58:01 = test: as above
HLA-A*31:01 = test: as above
HLA-B*15:17 [3] = test: as above
HLA-B*15:01 [4] = test: as above
HLA-B*27:05 = test: as above
HLA-B*40:01 = test: as above
HLA-A*02:01 [5] = test: as above
HLA-A*69:01 [6] = test: as above
HLA-B*18:01 = test: as above
HLA-B*51:01 = test: as above
HLA-B*46:01 = test: as above
HLA-A*26:01 [7] = test: IEDB peptide-MHC binding, purified MHC/competitive/fluorescence; filed as Kd, often an IC50 or EC50 that approximates it; ≥ and ≤ were set here for values at or beyond the usual limits of such assays; conditions: source organism: Vibrio vulnificus YJ016
HLA-A*30:01 = test: as above; conditions: source organism: Vibrio vulnificus YJ016
HLA-A*02:01 [8] = test: as above; conditions: source organism: Vibrio vulnificus YJ016
HLA-A*69:01 [9] = test: as above; conditions: source organism: Vibrio vulnificus YJ016
HLA-B*07:02 = test: IEDB peptide-MHC binding, purified MHC/direct/fluorescence; filed as Kd, often an IC50 or EC50 that approximates it; ≥ and ≤ were set here for values at or beyond the usual limits of such assays; conditions: source organism: Vibrio vulnificus YJ016
HLA-A*01:01 [10] = test: as above
HLA-B*39:01 = test: as above
HLA-A*03:01 [11] = test: IEDB peptide-MHC binding, purified MHC/competitive/fluorescence; filed as Kd, often an IC50 or EC50 that approximates it; ≥ and ≤ were set here for values at or beyond the usual limits of such assays; conditions: source organism: Vibrio parahaemolyticus RIMD 2210633
HLA-B*15:17 [12] = test: as above; conditions: source organism: Vibrio parahaemolyticus RIMD 2210633
HLA-B*15:01 [13] = test: as above; conditions: source organism: Vibrio parahaemolyticus RIMD 2210633
HLA-A*26:01 [14] = test: IEDB peptide-MHC binding, purified MHC/direct/fluorescence; filed as Kd, often an IC50 or EC50 that approximates it; ≥ and ≤ were set here for values at or beyond the usual limits of such assays; conditions: source organism: Vibrio parahaemolyticus AQ3810
HLA-B*08:02 = test: as above; conditions: source organism: Vibrio parahaemolyticus AQ3810
[15] = source organism: Mycobacterium tuberculosis
[16] = source organism: Vibrio vulnificus YJ016
[17] = source organism: Vibrio parahaemolyticus
[18] = source organism: Vibrio parahaemolyticus AQ3810

GPAGYTAAL
Kd (HLA-A*01:01 [1]): ≥ 20 µM
Kd (HLA-B*48:01; [15]): ≥ 20 µM
Kd (HLA-A*11:01; [15]): ≥ 20 µM
Kd (HLA-A*03:01 [2]; [15]): ≥ 20 µM
Kd (HLA-B*57:01; [15]): ≥ 20 µM
Kd (HLA-B*38:01; source organism: Mycobacterium tuberculosis str. Haarlem): ≥ 20 µM
Kd (HLA-B*58:01; [15]): ≥ 20 µM
Kd (HLA-A*31:01; [15]): ≥ 20 µM
Kd (HLA-B*15:17 [3]; [15]): ≥ 20 µM
Kd (HLA-B*15:01 [4]; [15]): ≥ 20 µM
Kd (HLA-B*27:05; [15]): ≥ 20 µM
Kd (HLA-B*40:01; [15]): ≥ 20 µM
Kd (HLA-A*02:01 [5]; [15]): ≥ 20 µM
Kd (HLA-A*69:01 [6]; [15]): ≥ 20 µM
Kd (HLA-B*18:01; [15]): ≥ 20 µM
Kd (HLA-B*51:01; [15]): ≥ 20 µM
Kd (HLA-B*46:01; [15]): ≥ 20 µM

IVAQGIAAL
Kd (HLA-A*26:01 [7]): ≥ 20 µM
Kd (HLA-A*30:01): ≥ 20 µM
Kd (HLA-A*02:01 [8]): 0.0181 µM
Kd (HLA-A*69:01 [9]): 0.0077 µM
Kd (HLA-B*48:01; [16]): ≥ 20 µM
Kd (HLA-A*11:01; [16]): ≥ 20 µM
Kd (HLA-A*03:01 [2]; [16]): ≥ 20 µM
Kd (HLA-B*07:02): 0.086 µM
Kd (HLA-B*57:01; [16]): ≥ 20 µM
Kd (HLA-B*38:01; [16]): ≥ 20 µM
Kd (HLA-B*58:01; [16]): ≥ 20 µM
Kd (HLA-A*31:01; [16]): ≥ 20 µM
Kd (HLA-B*15:17 [3]; [16]): 0.0475 µM
Kd (HLA-B*15:01 [4]; [16]): 0.048 µM
Kd (HLA-B*27:05; [16]): ≥ 20 µM
Kd (HLA-A*01:01 [10]; [16]): ≥ 20 µM
Kd (HLA-B*39:01; [16]): 0.22 µM
Kd (HLA-B*40:01; [16]): ≥ 20 µM
Kd (HLA-B*18:01; [16]): ≥ 20 µM
Kd (HLA-B*51:01; [16]): ≥ 20 µM
Kd (HLA-B*46:01; [16]): 9 µM

RSTLANGWY
Kd (HLA-A*03:01 [11]): 1.48 µM
Kd (HLA-B*15:17 [12]): 0.0012 µM
Kd (HLA-B*15:01 [13]): 0.0942 µM
Kd (HLA-A*26:01 [14]): 0.59 µM
Kd (HLA-B*48:01; [17]): ≥ 20 µM
Kd (HLA-A*11:01; [17]): ≥ 20 µM
Kd (HLA-B*57:01; [17]): 0.268 µM
Kd (HLA-B*38:01; [18]): ≥ 20 µM
Kd (HLA-B*58:01; [17]): 0.059 µM
Kd (HLA-A*31:01; [17]): ≥ 20 µM
Kd (HLA-B*27:05; [17]): ≥ 20 µM
Kd (HLA-A*01:01 [10]; [17]): 0.274 µM
Kd (HLA-B*39:01; [18]): ≥ 20 µM
Kd (HLA-B*40:01; [17]): ≥ 20 µM
Kd (HLA-A*02:01 [5]; [17]): ≥ 20 µM
Kd (HLA-B*08:02): ≥ 20 µM
Kd (HLA-A*69:01 [6]; [17]): ≥ 20 µM
Kd (HLA-B*18:01; [17]): ≥ 20 µM
Kd (HLA-B*46:01; [17]): ≥ 20 µM
